Test results taken from patent US20150218286A1.

Target: CD22 (human) (UniProt P20273)
Assay: cell-based or functional assay

| Substance | LC50, 697 cells (ALL) | LC50, EU cells (ALL) | LC50, KOPN 8 cells (ALL) | LC50, NALM 6 cells (ALL) | LC50, RAJI cells (Burkitt) | LC50, REH cells (ALL) | LC50, 697 cells (ALL), second series | LC50, EU cells (ALL), second series | LC50, KOPN 8 cells (ALL), second series | LC50, NALM 6 cells (ALL), second series | LC50, RAJI cells (Burkitt), second series | LC50, REH cells (ALL), second series |
| --- | --- | --- | --- | --- | --- | --- | --- | --- | --- | --- | --- | --- |
| HA22-LR-KDEL | 0.2 ng/mL | 0.3 ng/mL | 0.3 ng/mL | 1 ng/mL | 0.2 ng/mL | 0.2 ng/mL | – | – | – | – | – | – |
| HA22-LR-8X | – | – | – | – | – | – | 1 ng/mL | 0.3 ng/mL | 0.4 ng/mL | 2 ng/mL | 0.2 ng/mL | 0.5 ng/mL |
